From patent publication US20070037210A1 (VALO HSJ LIMITED PARTNERSHIP, published 2007)
Non-standard residues stand in square brackets, D forms with d. No end group written: not given here.

T1: Interleukin-1 receptor accessory protein (IL-1RacP), on A549 carcinoma cells (human, UniProt Q9NPH3 21-570)
T1 sequence (looked up): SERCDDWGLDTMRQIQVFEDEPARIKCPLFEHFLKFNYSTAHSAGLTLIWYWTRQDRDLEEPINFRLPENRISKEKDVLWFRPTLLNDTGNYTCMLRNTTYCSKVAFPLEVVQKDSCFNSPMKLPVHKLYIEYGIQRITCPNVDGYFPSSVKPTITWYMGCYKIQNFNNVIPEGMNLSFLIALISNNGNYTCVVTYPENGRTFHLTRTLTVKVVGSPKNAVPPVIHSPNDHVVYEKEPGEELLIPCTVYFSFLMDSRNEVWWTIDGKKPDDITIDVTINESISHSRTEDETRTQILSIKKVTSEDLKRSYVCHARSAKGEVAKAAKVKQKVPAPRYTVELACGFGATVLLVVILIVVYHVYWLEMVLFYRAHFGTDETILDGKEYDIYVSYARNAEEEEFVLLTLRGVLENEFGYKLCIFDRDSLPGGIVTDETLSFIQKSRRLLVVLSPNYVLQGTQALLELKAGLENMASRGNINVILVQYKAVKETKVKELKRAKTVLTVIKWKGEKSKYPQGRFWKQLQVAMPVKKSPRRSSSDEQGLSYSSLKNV


biological target: T1, Interleukin-1 receptor accessory …; assay: cell-based or functional assay

Binder	IL-1 induced proliferation in A549 carcinoma cells, 3H-thymidine incorporation
VGSPKNAVPPV [API-106]	10000 nM
MKLPVHKLY [API-103]	1000 nM
APRYTVELA [API-101]	1000 nM

biological target: Insulin-like growth factor-1 receptor (IGF-1R) (human, UniProt P08069 31-1367); assay: cell-based or functional assay
Sequence (P08069 31-1367): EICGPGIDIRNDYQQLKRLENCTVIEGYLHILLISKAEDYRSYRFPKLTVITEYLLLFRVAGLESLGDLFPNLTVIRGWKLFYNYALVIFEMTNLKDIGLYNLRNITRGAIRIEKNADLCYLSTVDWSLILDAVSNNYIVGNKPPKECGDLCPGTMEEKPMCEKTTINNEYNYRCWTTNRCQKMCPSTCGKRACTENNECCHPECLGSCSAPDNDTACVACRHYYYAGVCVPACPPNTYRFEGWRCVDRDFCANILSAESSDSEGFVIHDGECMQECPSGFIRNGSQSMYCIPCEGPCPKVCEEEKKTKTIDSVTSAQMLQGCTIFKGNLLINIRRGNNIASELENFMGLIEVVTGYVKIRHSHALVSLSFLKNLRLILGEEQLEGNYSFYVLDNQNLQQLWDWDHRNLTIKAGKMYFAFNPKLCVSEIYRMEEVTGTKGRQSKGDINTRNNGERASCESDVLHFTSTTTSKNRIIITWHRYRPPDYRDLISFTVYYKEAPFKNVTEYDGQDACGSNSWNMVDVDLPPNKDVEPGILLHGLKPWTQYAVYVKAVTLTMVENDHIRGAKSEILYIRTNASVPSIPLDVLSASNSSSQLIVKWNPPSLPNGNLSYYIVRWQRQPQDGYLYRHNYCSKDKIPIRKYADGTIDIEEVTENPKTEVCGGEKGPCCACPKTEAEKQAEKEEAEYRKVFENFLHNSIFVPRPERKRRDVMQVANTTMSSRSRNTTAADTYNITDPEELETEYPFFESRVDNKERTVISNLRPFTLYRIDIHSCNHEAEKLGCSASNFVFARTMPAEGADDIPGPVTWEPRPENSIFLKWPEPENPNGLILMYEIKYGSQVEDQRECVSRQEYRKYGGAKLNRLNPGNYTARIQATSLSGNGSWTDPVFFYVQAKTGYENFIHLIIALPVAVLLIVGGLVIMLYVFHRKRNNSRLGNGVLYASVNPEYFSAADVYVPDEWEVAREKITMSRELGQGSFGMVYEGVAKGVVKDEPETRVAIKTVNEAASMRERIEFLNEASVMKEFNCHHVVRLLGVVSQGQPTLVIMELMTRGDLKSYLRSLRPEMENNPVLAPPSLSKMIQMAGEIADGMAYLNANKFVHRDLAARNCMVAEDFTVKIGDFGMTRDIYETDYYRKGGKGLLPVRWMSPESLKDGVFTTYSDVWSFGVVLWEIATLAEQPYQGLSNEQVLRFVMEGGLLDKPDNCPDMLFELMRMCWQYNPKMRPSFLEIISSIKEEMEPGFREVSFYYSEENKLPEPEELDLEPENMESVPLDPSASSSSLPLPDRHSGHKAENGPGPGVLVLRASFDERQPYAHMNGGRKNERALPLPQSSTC

Binder	IGF-1 induced proliferation in A549 carcinoma cells, 3H-thymidine incorporation
[dS][dL][dF][dV][dP][dR][dP][dE][dR][dK] [APG-201]	1000 nM
[dL][dR][dK][dY][dA][dD]G[dT][dL] [APG-204]	10 nM
[dE][dS][dD][dV][dL][dH][dF][dT][dS][dT] [APG-202]	10 nM
